Results reported in patent US20200283847, “TEST KIT FOR DETECTING CONCENTRATION OF CARDIOVASCULAR DISEASE-RELATED BIOMARKER AND CONCENTRATION DETECTION METHOD FOR DETECTING CONCENTRATION OF CARDIOVASCULAR DISEASE-RELATED BIOMARKER” (National Tsing Hua University, published 2020).

Legend:
[1] = target: T1, hcTnI (human cardiac troponin I) (Homo sapiens, UniProt P19429 P19429:2-210); experiment: antibody luminescence assay
Protocol: (§1) Firstly, the binding affinities of the first aptamer, the second aptamer, and the third aptamer contained in the test kit for detecting the concentration of the cardiovascular disease-related biomarker of the present disclosure are tested. The surface plasmon resonance (SPR) method is used in the binding affinity test to measure the signal changes and calculate the dissociation constant (Kd) of the first aptamer, the second aptamer and the third aptamer against their respective target proteins. Alternatively, a primary antibody against the target protein and secondary antibody conjugated with an enzyme is used in test. The binding affinities of the first aptamer, the second aptamer, and the third aptamer against their respective target proteins are measured by detecting the intensities of luminescence.
The curves of binding affinity curve are plotted with luminescence intensity of the first aptamer, the second aptamer or the third aptamer with its target protein. The first aptamer, the second aptamer or the third aptamer is bound to the target protein. And then the aptamer-protein complex is incubated with antibodies against target proteins and further with secondary antibodies conjugated with the enzyme, which could produce luminescence when providing substrates. The signal of luminescence of the first aptamer, the second aptamer or the third aptamer is detected. […]

[2] = target: T2, NT-proBNP (N-terminal pro-brain natriuretic peptide) (UniProt P16860 P16860:27-102); experiment: SPR
Protocol: as §1

fibrinogen [3] = target: T3, fibrinogen (UniProt P02671-2;P02675;P02679 P02671-2:20-644,P02675:31-491,P02679:27-453); experiment: pulldown; protein-coated magnetic beads, qPCR; conditions: chain copies: 2
Text: (§2) In the specificity test, the single-stranded DNA of the first aptamer, the second aptamer and the third aptamer are synthesized first. The magnetic beads coated with the target protein or the non-target protein are mixed with the first aptamer, the second aptamer or the third aptamer, and then the magnetic beads are captured by the magnet and the aptamers which are not bound to the magnetic beads are washed away. Then, the magnetic beads are heated to denature the proteins on the magnetic beads for releasing the bound aptamers into the supernatant. Quantitative PCR is performed using the supernatant to analyze the number of residual aptamers, and compared with each other to test the specificity of the first aptamer, the second aptamer, and the third aptamer. In theory, a specific aptamer should only bind to its corresponding target protein, but not to a non-corresponding protein. The aptamers tested in the example are the first aptamer N20a, the second aptamer Tn2, and the third aptamer F03s.
(§3) Please refer to FIGS. 5A, 5B, 5C and 5D, which show specificity analysis results of a test kit for detecting the concentration of the cardiovascular disease-related biomarker according to one embodiment of the present disclosure. […] TT represents the hcTnI with the second aptamer Tn2, NT represents the NT-proBNP protein with the second aptamer Tn2, FT represents the fibrinogen protein with the second aptamer Tn2, and BT represents the BSA protein with the second aptamer Tn2. FF represents the fibrinogen protein with the third aptamer F03s, NF represents the NT-proBNP with the third aptamer F03s, TF represents the hcTnI with the third aptamer F03s, and BF represents the BSA protein with the third aptamer F03s.

[4] = target: T1, hcTnI (human cardiac troponin I); experiment: pulldown; protein-coated magnetic beads, qPCR
Text: as §2, §3

[5] = target: T4, BSA (bovine serum albumin) (Bos taurus, UniProt P02769 P02769:25-607); experiment: pulldown; protein-coated magnetic beads, qPCR
Text: as §2, §3

fibrinogen [6] = target: T3, fibrinogen; experiment: SPR; conditions: chain copies: 2
Protocol: as §1

[7] = target: T2, NT-proBNP (N-terminal pro-brain …); experiment: pulldown; protein-coated magnetic beads, qPCR
Text: as §2, §3

[8] = target: T1, hcTnI (human cardiac troponin I); experiment: SPR
Protocol: as §1

fibrinogen [9] = target: T3, fibrinogen; experiment: pulldown; protein-coated magnetic beads, qPCR; also no dose-dependent signal in FIG. 7B; conditions: chain copies: 2
Protocol: as §2, with “The” for “In the specificity test, the single-stranded DNA of the first aptamer, the second aptamer and the third aptamer are synthesized first. The”
as §3

[10] = target: T2, NT-proBNP (N-terminal pro-brain …); experiment: as above
Protocol: as §2, with “The” for “In the specificity test, the single-stranded DNA of the first aptamer, the second aptamer and the third aptamer are synthesized first. The”
as §3

[11] = target: T4, BSA (bovine serum albumin); experiment: as above
Protocol: as §2, with “The” for “In the specificity test, the single-stranded DNA of the first aptamer, the second aptamer and the third aptamer are synthesized first. The”
as §3

T3 sequence (P02671 other isoform, or with tags, fused parts or gaps, chain 1 of 3): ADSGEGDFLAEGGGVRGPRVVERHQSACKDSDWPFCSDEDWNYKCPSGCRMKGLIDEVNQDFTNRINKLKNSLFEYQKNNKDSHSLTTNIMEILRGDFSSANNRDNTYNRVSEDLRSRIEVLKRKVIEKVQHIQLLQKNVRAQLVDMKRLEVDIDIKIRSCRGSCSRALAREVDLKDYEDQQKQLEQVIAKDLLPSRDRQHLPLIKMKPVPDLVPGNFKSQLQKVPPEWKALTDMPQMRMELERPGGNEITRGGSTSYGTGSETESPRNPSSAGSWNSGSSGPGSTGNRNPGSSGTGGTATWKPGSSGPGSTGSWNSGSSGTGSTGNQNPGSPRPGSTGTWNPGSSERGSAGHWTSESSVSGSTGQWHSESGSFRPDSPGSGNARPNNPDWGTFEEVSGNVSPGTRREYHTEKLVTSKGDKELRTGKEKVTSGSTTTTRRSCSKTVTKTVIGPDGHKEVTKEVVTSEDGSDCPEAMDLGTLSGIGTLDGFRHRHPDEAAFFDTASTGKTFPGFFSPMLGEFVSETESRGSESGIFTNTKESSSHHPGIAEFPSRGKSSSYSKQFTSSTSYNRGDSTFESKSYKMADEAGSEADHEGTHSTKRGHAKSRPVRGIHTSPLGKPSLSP
T3 sequence (P02675 31-491, chain 2 of 3): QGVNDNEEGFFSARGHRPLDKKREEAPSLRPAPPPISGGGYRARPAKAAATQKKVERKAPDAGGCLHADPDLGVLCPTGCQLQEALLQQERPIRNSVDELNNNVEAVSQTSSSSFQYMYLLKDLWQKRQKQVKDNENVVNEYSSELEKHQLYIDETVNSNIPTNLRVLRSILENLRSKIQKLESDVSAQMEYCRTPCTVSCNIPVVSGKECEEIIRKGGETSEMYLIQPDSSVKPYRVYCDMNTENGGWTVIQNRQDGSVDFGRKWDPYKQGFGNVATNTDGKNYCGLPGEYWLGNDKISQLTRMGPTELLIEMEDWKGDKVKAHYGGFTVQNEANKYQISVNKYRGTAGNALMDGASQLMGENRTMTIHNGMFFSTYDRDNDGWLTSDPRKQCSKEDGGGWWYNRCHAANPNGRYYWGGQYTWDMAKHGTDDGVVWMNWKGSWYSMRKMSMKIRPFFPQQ
T3 sequence (P02679 27-453, chain 3 of 3): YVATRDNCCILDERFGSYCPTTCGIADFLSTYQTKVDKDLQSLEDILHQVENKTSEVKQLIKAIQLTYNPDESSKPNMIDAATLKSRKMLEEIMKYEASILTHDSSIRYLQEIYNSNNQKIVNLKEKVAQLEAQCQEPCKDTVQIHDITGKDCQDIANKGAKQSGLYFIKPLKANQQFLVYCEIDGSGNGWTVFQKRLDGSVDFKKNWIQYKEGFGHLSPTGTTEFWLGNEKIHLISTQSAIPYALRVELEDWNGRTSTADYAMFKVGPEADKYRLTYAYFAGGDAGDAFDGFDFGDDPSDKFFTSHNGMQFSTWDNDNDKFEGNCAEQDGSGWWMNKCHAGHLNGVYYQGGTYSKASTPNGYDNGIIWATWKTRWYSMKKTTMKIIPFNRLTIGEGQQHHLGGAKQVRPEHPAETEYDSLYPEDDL
T2 sequence (P16860 27-102, one chain of several): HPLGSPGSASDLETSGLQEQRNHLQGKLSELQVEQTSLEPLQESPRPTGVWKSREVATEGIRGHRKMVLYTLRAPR
T4 sequence (P02769 25-607, one chain of several): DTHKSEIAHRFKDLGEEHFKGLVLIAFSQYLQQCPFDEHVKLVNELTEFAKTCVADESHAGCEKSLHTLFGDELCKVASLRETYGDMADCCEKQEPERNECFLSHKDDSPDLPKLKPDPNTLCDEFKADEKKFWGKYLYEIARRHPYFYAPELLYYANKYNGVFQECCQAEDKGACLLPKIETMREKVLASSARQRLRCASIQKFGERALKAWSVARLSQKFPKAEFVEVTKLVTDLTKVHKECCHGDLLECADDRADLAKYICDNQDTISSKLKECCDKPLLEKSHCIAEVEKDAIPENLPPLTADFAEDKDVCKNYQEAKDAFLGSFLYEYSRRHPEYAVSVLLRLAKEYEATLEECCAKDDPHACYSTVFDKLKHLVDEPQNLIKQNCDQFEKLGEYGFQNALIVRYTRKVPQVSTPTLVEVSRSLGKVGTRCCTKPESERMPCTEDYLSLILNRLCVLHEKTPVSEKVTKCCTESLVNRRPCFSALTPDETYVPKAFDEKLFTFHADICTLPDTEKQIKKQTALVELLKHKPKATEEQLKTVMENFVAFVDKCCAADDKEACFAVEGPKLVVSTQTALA
T1 sequence (P19429 2-210, one chain of several): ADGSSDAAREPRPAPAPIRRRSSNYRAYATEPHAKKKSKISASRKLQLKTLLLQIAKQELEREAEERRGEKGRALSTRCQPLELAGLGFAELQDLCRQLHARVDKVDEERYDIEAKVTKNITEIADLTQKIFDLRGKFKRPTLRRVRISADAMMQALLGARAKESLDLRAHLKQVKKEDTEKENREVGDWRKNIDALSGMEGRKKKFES

B1: cTni3 (ssDNA)
DNA: GGCAGGAAGACAAACAGGGGTACTTAGCATAGGAGTTTTGTTCTGTCGCACCTCGTTGGTCTGTGGTGCTGT
**Q.** B1 was tested. Which Kd [1] did it give?
**A.** 2.3 nM

B2: N20a (ssDNA)
DNA: GGCAGGAAGACAAACAGGTCGTAGTGGAAACTGTCCACCGTAGACCGGTTATCTAGTGGTCTGTGGTGCTGT
**Q.** B2 was tested. Which Kd [2] did it give?
**A.** 2.89 nM

**Q.** Does B2 bind (fibrinogen [3])?
**A.** no binding

**Q.** Does B2 bind [4]?
**A.** no binding

**Q.** Does B2 bind [5]?
**A.** no binding

B3: F03s (ssDNA)
DNA: GGCAGGAAGACAAACAGCACCGGGTCCGAAACAGGCTTAGGTATGATCACAGCTCATGGTCTGTGGTGCTGT
**Q.** With B3 as the binder, how does the Kd (fibrinogen [6]) read?
**A.** 4.4 nM

**Q.** Does B3 bind [7]?
**A.** no binding

**Q.** Does B3 bind [4]?
**A.** no binding

**Q.** Does B3 bind [5]?
**A.** no binding

B4: cTni6 (ssDNA)
DNA: GGCAGGAAGACAAACACGGGGCGGCCGAAACAATGCGTTTCGGACCCAGCAACTCGTGGTCTGTGGTGCTGT
**Q.** For B4, which Kd [1] is on record?
**A.** 49.4 nM

B5: Tn2 (ssDNA)
DNA: GGCAGGAAGACAAACACCCAACCGAGGATGCAACGCTTGTTGTCATACTGTGATGTTGGTCTGTGGTGCTGT
**Q.** Which results are given for B5?
**A.** Kd [8]: 19.8 nM; binding result (fibrinogen [9]): no binding; binding result [10]: no binding; binding result [11]: no binding
